# Measurements reported in patent US20230295310A1 (ABCELLERA BIOLOGICS, published 2023).
# Residue numbers refer to the chain shown, from its start.
# B1: mAb 102 (antibody, V domains shown)
# VH: QVQLVESGGGVVQPGRSLRLSCAASGFSFRSYGMHWVRQAPGKGLEWVSVISYDGGNKYYADSVKGRFTISRDNSKNTLFLQMKSLRAEDTALYYCAKGGGTYWRGLFEYWGQGTLVTVSS
# VL: DIQLTQSPSFLSASVGDRVTITCRASQGISSYLAWYQKKPGKAPKLLIYAASTLHSGVPSRFSGGGSGTAFTLTISSLQPEDFATYYCQQLNNYPFTFGPGTKVDIK
# B2: mAb 94 (antibody, V domains shown)
# VH: QVHLVESGGGVVQPGRSLRLSCSASGFTFSGYGMHWVRQAPGKGLEWVALIYFDGRNKYYADSVKGRFTISRDNSKNTLYLQMNSLRAEDTAVYYCARGGGYNWFDPWGQGTLVTVSS
# VL: DIQMTQSPSSLSASVGDRVTITCRASQSISNYLNWYQQKPGKAPKLLIYLASSLQSGVPSRFSGSGSGTDFTLTINSLQPEDFASYYCQLSYSSPFTFGPGTKVDVN
# B3: mAb 100 (antibody, V domains shown)
# VH: B2 VH with H3Q, S23V, S30R, L50I, F53Y, R56K, A88V, V93L
# VL: DIQMTQSPSSLSASVGDRVTITCRASQSISTYLNWYQQKPGKAPKLLIYTASSLQSGVPSRFSGSGSGTVFTLTISSLQPEDFAIYYCQRSYSPPFTFGPGTRLDIK
# B4: mAb 96 (antibody, V domains shown)
# VH: B2 VH with V2A, A49S
# VL: B2 VL with S30N, N34S, S53N, S65N, N76S, S85T, S93R, N107K
# B5: mAb 98 (antibody, V domains shown)
# VH: B2 VH with G10D
# VL: B2 VL with S30N, N76S, F83L, S85T, N107K
# B6: mAb 101 (antibody, V domains shown)
# VH: B2 VH with V2G, H3Q, S23A, S30R, Y32F, L50I, F53Y, R56K, T78M, R98K
# VL: B3 VL with T50S, V70D, S77N, R103K, K107R
# B7: mAb 99 (antibody, V domains shown)
# VH: B2 VH with V2G, H3Q, S23A, S30R, Y32F, L50I, F53Y, R56K, R98K
# VL: B3 VL with T50S, V70D, S77N, R103K, K107R
# B8: mAb 97 (antibody, V domains shown)
# VH: B2 VH with V2G, H3Q, S23A, S30R, L50I, F53Y, R56K, S85N, A88V
# VL: B3 VL with V15I, T31N, T50S, V70D, S77N, R103K, K107R
# B9: mAb 95 (antibody, V domains shown)
# VH: B2 VH with V2A
# VL: B2 VL with S30N, N34S, S53N, N76S, S85T, S93R, N107K
# B10: mAb 106 (antibody, V domains shown)
# VH: QVQLVESGGGVVQPGRSLRLSCAASGFTFRSYGMHWVRQAPGKGLEWVAIIWYNGNKKDYVDSVKGRFTISRDNSKNTLYLQMNSLRAEDTALYYCARGPGYNWFDPWGQGTLVTVSS
# VL: DIQMTQSPPSLSASVGDRVTITCRASQRISSYLNWYQQKPGKAPKLLIYAASSLQSGVPSRFSGSGSGTDFTLTISSLQPEDFATYYCQQSDSFPLTFGGGTKVEII
# B11: mAb 110 (antibody, V domains shown)
# VH: B10 VH with T78M
# VL: B10 VL with K39R, S91T
# B12: mAb 77 (antibody, V domains shown)
# VH: EVQLVESGGGLVQPGGSLRLSCAASGFTFSNYWMSWVRQAPGKGLEWVANIKQDGSEKYYVDSVRGRFTISRDNAKKSLYLQMNSLRAEDTAVYYCARDNSNYAYWYFDIWGRGTLVTVSS
# VL: DIQMTQSPSTLSVSVGDRVTITCRASQSIRKWLAWYQQKPGKAPKLLIFKASSLESGVPSRFSGSGSGTEFTLTISSLQPDDFATYYCQQYDTYSRTFGQGTKVEIK
# B13: mAb 78 (antibody, V domains shown)
# VH: B12 VH with N31S, R65K, K77N, N102P, Y103S, A104F, I110L
# VL: B12 VL with V13A, I29L, R30S, K31R, F49Y, D92Y
# B14: mAb 43 (antibody, V domains shown)
# VH: QAQLVQSGSELKKPGASVKVSCKASGYTFTKHSMNWVRQAPGQGLEWMGWINTNTGNPMYAQGFTGRFVFSLDTSVTTAYLQISSLKAEDTAVYYCAREGDYDFWSGFFNFDYWGQGTLVTVSS
# VL: DIQMTQSPSSLSASVGDRVTITCRASQGIRNDLGWYQQKPGKAPKRLIYAASSLQSGVPSRFSGSGSGAEFTLTISSLQPEDFATYYCLQHNSYPRTFGQGTKVEIK
# B15: mAb 44 (antibody, V domains shown)
# VH: B14 VH with K31R, S33A, M59T, T77S, Q82K, A97V
# VL: B14 VL with Y36F, K45T
# B16: mAb 74 (antibody, V domains shown)
# VH: EVQLVESGGGLVQPGRSLRLSCAASGFTFADYVMHWVRQAPGKGLEWVSGINWNNARIGYVGSVKGRFTISRDNAKNSLYLQMTSLRVEDTALYHCVREGNFDFWSAYYRGFLDLWGRGTLVTVSS
# VL: B14 VL with N31S, A50G, S56G, A69T, R96Y, V104L
# B17: mAb 47 (antibody, V domains shown)
# V domain 1: B14 VH with M59T
# V domain 2: B14 VH with M59T
# B18: mAb 73 (antibody, V domains shown)
# VH: EVELVESGGGLVQPGRSLRLSCAASGFTFDDKVMHWVRQAPGKGLEWVSCINWNSGHIGYADSVKGRFTISRDNARTSLYLQMNSLRPEDTALYYCVREGNYDFWSGYYRGFFDLWGRGTLVTVSS
# VL: B14 VL with S56G, A69T, N92T, R96F, V104L
# B19: mAb 111 (antibody, V domains shown)
# VH: EVQLVESGGVLVKTGGSLRLSCVASGFSFKKAWMNWVRQAPGKGLEWVGRIKRNSDGGAADYAAPVKDRFTLSRDDSKNTLYLQMNSLKTEDTAVYYCTTLDSSSWYVGYYYMDVWGKGTTVTVSS
# VL: DIHMTQSPSSVSASLGDRVTFTCRASQNINNWLAWYQQKPGKAPKLLIYTASSLQSGVPSRFSGSGSGTDFTLTISSLQPDDFATYYCQQAHSLPITFGQGTRLGIK
# B20: mAb 113 (antibody, V domains shown)
# VH: B19 VH with V10G, S55T, A59T, A60T, D68G
# VL: B19 VL with H3Q, L15V, F21I, N28D, L46I, D81E, G105E
# B21: mAb 114 (antibody, V domains shown)
# VH: B19 VH with V10G, S55T, A59P, D68G, N79K
# VL: DIQMTQSPSSVSASVGDRVIITCRASQDINNWLAWYLQRPGKAPKLLIYAASSLQSGVPSRFSGSGSGTDFTLTIGSLQPEDFATYYCQQAHSLPITFGQGTRLEIQ
# B22: mAb 112 (antibody, V domains shown)
# VH: B19 VH with V10G, L18H, A59T, A60T, D68G, T71I
# VL: B19 VL with H3Q, L15V, F21I, N28D, L46I, S53N, D81E, Y87F, G105E
# B23: mAb 79 (antibody, V domains shown)
# VH: QVQLVQSGAEVKKPGASVKVSCKASGYIVTGYYMHWVRQAPGHGLEWMGWINPNSGGTNFAQNFQGRVTMTRDTSISTFYMDLNRLTSDDTAVYYCARGGAPVSYWFFDLWGRGTLVTVSS
# VL: DIQMTQSPSSLSASVGDRVTITCRASQNINSYLNWYHQKPGKAPKVLIYNTSTLKSGVPSRFSGSGSGTYFTLTISSLQPEDFATFYCQQSHSTPFTFGPGTKVDIK
# B24: mAb 85 (antibody, V domains shown)
# VH: B23 VH with I28T, H43Q, T87R
# VL: B23 VL with N28S, N30S, S31R, H37Q, T53S, Y70D, A84G
# Target: human CD3 (human, UniProt P07766 23-207; P04234 22-171; P09693 23-182)
# Sequence (P07766 23-207, chain 1 of 3): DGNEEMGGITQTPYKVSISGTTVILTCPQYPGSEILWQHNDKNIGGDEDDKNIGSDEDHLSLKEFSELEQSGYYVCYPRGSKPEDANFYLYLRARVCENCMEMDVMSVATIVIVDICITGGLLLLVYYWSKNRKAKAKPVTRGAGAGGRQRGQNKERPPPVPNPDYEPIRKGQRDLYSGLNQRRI
# Sequence (P04234 22-171, chain 2 of 3): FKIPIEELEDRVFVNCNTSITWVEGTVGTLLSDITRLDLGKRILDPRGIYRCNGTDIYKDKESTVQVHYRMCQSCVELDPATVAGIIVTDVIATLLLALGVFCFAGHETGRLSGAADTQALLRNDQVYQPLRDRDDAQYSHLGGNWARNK
# Sequence (P09693 23-182, chain 3 of 3): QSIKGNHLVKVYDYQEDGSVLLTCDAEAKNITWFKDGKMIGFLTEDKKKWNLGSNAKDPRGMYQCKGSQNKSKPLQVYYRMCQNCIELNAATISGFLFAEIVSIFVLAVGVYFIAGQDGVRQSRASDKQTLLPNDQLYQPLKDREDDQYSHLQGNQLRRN
# Experiment: cell-based or functional assay
Binder,"CD4 EC50 (nM); CD69/CD25 on human T cells, plate-coated antibody [nM]","CD8 EC50 (nM); CD69/CD25 on human T cells, plate-coated antibody [nM]"
B1,15.6,16.9
B2,11.7,12.4
B3,13.1,13.3
B4,17.2,19.5
B5,11.3,12
B6,12.9,14.5
B7,11.7,12.1
B8,12.6,13.9
B9,14.4,15.5
B10,13.6,12.9
B11,13.5,15.3
B12,12.9,13.1
B13,12.2,12.2
B14,24.6,25.6
B15,20.4,20.9
B16,20.9,19.6
B17,23.4,23.8
B18,24.8,23
B19,6.96,9.42
B20,8.81,8.89
B21,12.6,12.5
B22,6.48,6.56
B23,10.4,11
B24,9.43,10.3
